The source of these data is patent US20200369781A1 (published 2020).

The target in test [1] is T1, soluble human IL-6R (human, UniProt P08887 20-357).
T1 construct: 152, 4958-4968 (1994); also called hsIL-6R; recombinant human IL-6R
T1 sequence: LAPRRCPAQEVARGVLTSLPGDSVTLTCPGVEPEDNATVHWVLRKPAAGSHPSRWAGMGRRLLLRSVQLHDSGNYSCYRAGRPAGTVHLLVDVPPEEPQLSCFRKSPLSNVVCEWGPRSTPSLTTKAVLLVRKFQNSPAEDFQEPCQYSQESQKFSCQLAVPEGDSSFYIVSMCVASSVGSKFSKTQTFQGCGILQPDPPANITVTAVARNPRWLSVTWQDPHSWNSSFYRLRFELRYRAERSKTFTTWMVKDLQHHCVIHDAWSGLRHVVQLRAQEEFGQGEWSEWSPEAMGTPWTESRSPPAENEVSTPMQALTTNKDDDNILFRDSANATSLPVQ
Briefly: BLI (Octet HTX), molecule captured on Protein A biosensor, hsIL-6R as analyte, 30 C. The procedure:
The hsIL-6R binding evaluation of each molecule was conducted using Octet HTX (Pall ForteBio Corp.). Specifically, each molecule was allowed to bind to Biosensor/Protein A (ProA) (Pall ForteBio Corp., 18-5013), and hsIL-6R was allowed to act thereon, followed by binding evaluation at 30° C.
In general terms: BLI is a label-free optical method that tracks binding on a fibre tip over time.

For test [2], the target named is T1, soluble human IL-6R. Briefly: BLI (Octet), in the same way as in Example 3.
Test [3] deals with T1, soluble human IL-6R. Briefly: BLI (Octet), in the same way as in Example 3, 30 C or 25 C.

B1: IL6R90-G1m/VK2-28-k0MT (antibody, human IgG1, kappa, V domains shown)
VH: EVQLVESGGGLVQPGGSLRLSCAASGFTFDDYGMSWVRQAPGKALEWVSAISWNGNNTYYTESMKGRFTISRDNAKNTLYLQMNSLRPEDTAVYYCVKGSTAIVGVPPTYPDEYDYWGQGTLVTVSS
VL: not shown
notes: IgG antibody-like molecule with VHH IL6R90 in place of VH
For the molecule B1, the binding result in the test with soluble human IL-6R [1] is given as “no binding”.

B2: 20A11-G1m/VK2-28-k0MT (antibody, human IgG1, kappa, V domains shown)
VH: EVQLVESGGGLVQPGGSLRLSCAASGSVFKINVMAWYRQAPGKGRELVAGIISGGSTSYADSVKGRFTISRDNAKNTLYLQMNSLRPEDTAVYYCAFITTESDYDLGRRYWGQGTLVTVSS
VL: not shown
notes: IgG antibody-like molecule with VHH 20A11 in place of VH
As to B2, in the test with soluble human IL-6R [2], the binding result is given as “binds”.

B3: 20A11hu-G1m/VK2-28-k0MT (antibody, human IgG1, kappa, V domains shown)
VH: EVQLVESGGGLVQPGGSLRLSCAASGSVFKINVMAWVRQAPGKGLEWVAGIISGGSTSYADSVKGRFTISRDNAKNTLYLQMNSLRPEDTAVYYCAFITTESDYDLGRRYWGQGTLVTVSS
VL: not shown
notes: IgG antibody-like molecule with VHH 20A11hu in place of VH
B3: the binding result in the test with soluble human IL-6R [3] was “no binding”.
